From patent US20210403864A1, “METHODS AND COMPOSITIONS FOR TREATING ACTIVATED G-ALPHA Q MUTANT CANCERS OR MELANOCYTIC MALIGNANCIES” (Memorial Sloan Kettering Cancer Center, priority 2018, published 2021) come the findings set out here.

The test system of assay [1] is human Mel202 uveal melanoma xenografts. The assay can be described thus: In vivo anti-tumor activity, xenografts in SCID mice. To be noted: MEK162 10 mg/kg P.O. b.i.d.; YM-254890 2.5 mg/kg i.p. q.d.; over 20 days; single agents vs vehicle, combination vs vehicle and single agents. Here is the method:
To evaluate the effect of YM-254890 and binimetinib (MEK162) in vivo, Mel202 uveal melanoma xenografts were established in SCID mice, and the mice were treated with vehicle only, 10 mg/kg MEK162 (P.O., b.i.d.), YM-254890 (2.5 mg/kg i.p., q.d.) or a combination of MEK162 and YM-254890. Tumor volumes were measured over 20 days.

For assay [2], the target named is GNAQ^Q209L (human GNAQ α-subunit, Q209L mutant) (human) (UniProt P50148). The assay can be described thus: cell-based or functional assay.
For assay [3], the target named is GNAQ^Q209L/P (endogenous, in three human UVM cell lines) (human) (UniProt P50148). The experiment in a line: cell-based or functional assay.
Assay [4] deals with GNAQ^R183Q (human GNAQ α-subunit, R183Q mutant) (human) (UniProt P50148). The assay can be described thus: cell-based or functional assay.
Chain of GNAQ^R183Q (human GNAQ α-subunit, R183Q mutant) (human) (P50148 whole entry R183Q): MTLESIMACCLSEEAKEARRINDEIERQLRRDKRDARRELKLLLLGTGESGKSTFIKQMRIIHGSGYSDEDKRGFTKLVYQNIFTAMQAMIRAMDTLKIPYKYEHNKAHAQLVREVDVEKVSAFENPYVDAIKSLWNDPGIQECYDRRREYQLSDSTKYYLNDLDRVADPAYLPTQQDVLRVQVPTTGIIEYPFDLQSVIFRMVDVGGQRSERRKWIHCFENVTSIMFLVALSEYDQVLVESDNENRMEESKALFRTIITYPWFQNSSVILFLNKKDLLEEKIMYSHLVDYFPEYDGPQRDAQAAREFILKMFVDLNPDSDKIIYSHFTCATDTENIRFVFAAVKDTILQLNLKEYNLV

Chain of GNAQ^Q209L (human GNAQ α-subunit, Q209L mutant) (human) (P50148 whole entry Q209L): as the sequence (P50148 whole entry R183Q) above, with Q183R, Q209L counted along it

On to `Cn1cnc2c(F)c(Nc3ccc(Br)cc3F)c(C(=O)NOCCO)cc21` [MEK162, binimetinib], for which, in assay [1], the tumor volume result is listed as “moderate reduction”.

With YM-254890 (peptide), the IP1 accumulation, mutant-transformed melan-a cells, 24-hour treatment (fold less sensitive) in assay [2] and in assay [4] was 10 throughout. In assay [3], this compound had an IC50 of cell proliferation, human UVM cell lines (CellTiter-glo 2.0, 5 days) of 100 nM. In assay [4], this compound gave an IP1 accumulation after 24-hour treatment with variable doses of YM, transfected HEK293T cells (fold less sensitive) of 20.
